Data: a protein production outcome set (Wang et al. 2014)

Experiment: label from the status in PepcDB records

Sequence | protein production
MVGEEDSERAQSSKMEIERESNLGSASVLMQSKVISVSNFFSIHRFHYPREKIVSFLFPSVFSRIMASYGEEREIQKNYWKEHSVGLSVEAMMLDSKASDLDKEERPEILAFLPPIEGTTVLEFGAGIGRFTTELAQKAGQVIAVDFIESVIKKNENINGHYKNVKFLCADVTSPNMNFPNESMDLIFSNWLLMYLSDQEVEDLAKKMLQWTKVGGYIFFRESCFHQSGDNKRKYNPTHYREPKFYTKLFKECHMNDEDGNSYELSLVSCKCIGAYVRNKKNQNQICWLWQKVSSDNDRGFQRFLDNVQYKSSGILRYERVFGEGFVSTGGLETTKEFVDMLDLKPGQKVLDVGCGIGGGDFYMAENFDVDVVGIDLSVNMISFALEHAIGLKCSVEFEVADCTKKEYPDNTFDVIYSRDTILHIQDKPALFRRFYKWLKPGGKVLITDYCRSPKTPSPDFAIYIKKRGYDLHDVQAYGQMLRDAGFEEVIAEDRTDQFMKVLKRELDAVEKEKEEFISDFSKEDYEDIIGGWKSKLLRSSSGEQKWGLFIAKRN | failed
MVGNVRHYLFYANSSELQQQMMNRKSHFNLSQTTQEWLIGKGYNPEDLEQPGENGDSALMKATREGVDAVVKELIDLGVDINARNNDNNNALWFACFGNHYDLIHLLLAAKINIDNQNDNGATVLMYAASAGKTEVVKLLLQYHPNLYLRNLDDFQAIDFASNVEVLRLLKNATK | failed
MVGQIAKEMGLRAYIVGGVVRDILLGKEVWDVDFVVEGNAIELAKELARRHGVNVHPFPEFGTAHLKIGKLKLEFATARRETYPRPGAYPKVEPASLKEDLIRRDFTINAMAISVNLEDYGTLIDYFGGLRDLKDKVIRVLHPVSFIEDPVRILRALRFAGRLNFKLSRSTEKLLKQAVNLGLLKEAPRGRLINEIKLALREDRFLEILELYRKYRVLEEIIEGFQWNEKVLQKLYALRKVVDWHALEFSEERIDYGWLYLLILISNLDYERGKHFLEEMSAPSWVRETYKFMKFKLGSLKEELKKAKENYEVYRLLKPLHTSVLLLLMLEEELKEKIKLYLEKLRKVKLPKEKIEELKKQGLKGKELGERIEELKREIMNKIKLAAALE | not failed
MVGQVIRKRGAYPEYTVEDVLAVIFLLKEPLGRKQISERLELGEGSVRTLLRKLSHLDIIRSKQRGHFLTLKGKEIRDKLLSMFSEPIGVSVDGYPGIAIVVKNPPEFKSIELRDEAIKFDAKGAMILTVKDNEIVFPEDFRPLKEMYPEVAKKIVDYEDGDAVIITWAETPAKALKSAIHVAYILKKEEITPEILEVVK | not failed
MVGSSETETKEHREAEERSSRESATATGKVSGKENELRPTYVYLLMMPENHNVDVQQTLQEQRKRNIKKARIEARLKLDQIRPTVVLENSRATKMMIEWGFTDFRKLQGSNLGNKKWICWVRKHCC | not failed
MVHAFLIHTLRAPNTEDTGLCRVLYSCVFGAEKSPDDPRPHGAERDRLLRKEQILAVARQVESMCRLQQQASGRPPMDLQPQSSDEQVPLHEAPRGAFRLAAENPFQEPRTVVWLGVLSLGFALVLDAHENLLLAEGTLRLLTRLLLDHLRLLAPSTSLLLRADRIEGILTRFLPHGQLLFLNDQFVQGLEKEFSAAWPR | failed
MVHEKKKMRKNHKKITHKGKKITTGAASVLLGAGIVVGANARPVKATSSREDEITEVDTINVISSETEKADVEQRTDTTETVETEGNVDNTNTEVSVPIDETINTEAQAANNTTQVESTVEDTTQEETTETQQNPSVDNQEPVLSDPPSVESPEDSATEVTTTKTTDEVKNAADEANKENKDKLDAEINKAEDNGHTVTQDGDKVYKADATNIDKIIEDLNQFTADQITDIETKLAKYKEELEAYKADQVRYEAELKNYQTAKDAYVKKLEEWGLYKPGDIDPSDISQSLILGEEKNSKVEVLNKGSVVDEGTGSILNGLLNHFYTIDEKFDGEFLKLQYTNLENITYMGKNIDSIQIIFSGWNPNYKGKNADKRTSGIYFSDKLTDGFFYVNSDGVTMEMILFENGKTINLDKNSAYITAGSLNSQGTGNDYIEKAEIFNNSSEYGGSAVTFQDSFIRRHDGTYGGDVLYADQNIEVLAVYPGKDQTLEDAIEEQKKLALEAGWKQEIIDKFINWDSSTDRSKAIFGAGAFMVYGNKIKIRFSNGIGSAWATYSTSIPGMAFREEKPKEPTVPEPPKLDLTYTPGHIELSKSNVHIHYVDVHDTAQAGKNDSFVPDDGIELDDHVDHQLDLLIGTGYNHDLWNFEDAGYILAEEIKDGVQNGTVIKDDQHHYVYLKHKFIPTTDEENEKKDVNQVIHYVYDATGETAYKDYHAVTLHFIKSGQKDVVNGNIIWGNWTLAQDFAGVKSPSIEGYHLKDKNDDVVGPYTIEVTEKNYQNNLDVEYTVRYVANATQELNLKKEVNQVIHYIYENGTKAHDDYHALTLLFEKKGIKDLETGEETWGEWTKTQTFVVVKSPDIQNYIADRLEVGPYEITVTDENYKTNLDKDDIVIYRARIEEVTRDKVVNQVIHYIYEDGSTARPDHVSVKLVFTQTGVKNLATNTTNWNGEWTKTQTFVVVKSPEIEGYTADREEVGPYDITVTNENYNDKLDKEDTVIYRANTNVPDNPDPDNPTPDNPDPDNPTPDTPTPDPTPGDDEEIATPPLPEDEIGNYPSQSDEDDEEERTAPHATGKETRSGTNKNNARVISLENAGSDDSVTPENVSTEATDKTDEKQTTVNSTNEKTLPATGEEKDDFAKVMSGLAAALGITGLAVTSKRRKATAKRSKKDKKNGK | failed
MVIDLAVDCQRQAAVLRQQRLRTARRVDDGQTLVHQDGTGIDVHAAPVRPAMALPLRTFQGLPAQGLQVVAGLQAEDTEDGTHGNTPGKVVMGGRRINTVQDITHKKNPHRPMRVFWKLGVCVGTSPSRRPASAAHDYSRADCCGDWRWRRWTETMSWADRIPLSAATQLLRWQPSRAGKPGIPRPPRDRGRVARIMSPPSSEASAMTPRIGRLAFAALIPLVLLQGCSTTAPRTEPAKLRQLEQTAADGSFDSIWEVASQLESRNDPRAIGWYERAAATTPWTFRNALAELALGRIWASGTLTHADSPYIDQRAALRASPRKGERWYLAAAMHGNPYAIRELAKFHRERGEAAAALRWDLRVAIYERAASGPSGLPAAIAPRDGDIHPLVRDIQRRARGGDAEAQVDLGALYEKGMGGMNRDGAEALRWYRRAADQGNVYGQYFYALLLGRGSSGVTRDEETAAIWFAKASAQRFYIADASHWREAIKPPFWTFD | failed
MVIGQKVLLARIPKMGDNYSTYLLDIEGTVCPISFVKETLFPYFTNKVPQLVQQDTRDSPVSNILSQFHIDNKEQLQAHILELVAKDVKDPILKQLQGYVWAHGYESGQIKAPVYADAIDFIKRKKRVFIYSSGSVKAQKLLFGYVQDPNAPAHDSLDLNSYIDGYFDINTSGKKTETQSYANILRDIGAKASEVLFLSDNPLELDAAAGVGIATGLASRPGNAPVPDGQKYQVYKNFETL | not failed
MVIINTAAYHFVSITQPQTLADQIRAHGEIAGLKGTVLIANEGINLFLAGEKEAINAFYAWLCADVRFAALHVKYSVSAYKPFARFKVKVRPEIISFRRGDISPLQVRAPGVSAHTLRDWLRRGCDDNGRRLVMLDARNQQEIAYGTFSGAMTLPITKFTGFPGALAHYRDLLSDATVVSFCTGGIRCEKAVLWMRADGMDNVLQLEGGILGYFEQVGGEGYDGRCFVFDKRVALDPQLRPLYDMRVVASFARSEIS | failed
MVINIRRSRPDEGDKLTAIWCRSVDATHDFLTKAYRKELEEMVRAFLPEAPLWVAVSTEDQPIAFMLLTGDHMDALFVDPDVRGCGVGKLLIEHALSLTPKLTTNVNEQNEQAVGFYQKMGFRVTGRSETDDLGQPYPLLNLMYEQQAEADYD | not failed
MVIPALPKIEDQFSTSATTVAWITSAYLIVGAVASPVFGKLGDRYGKKKIYLLAIAFYSLAVLIAGFSTNIYMLIFARAIQGLGFAVFPIAIAIITDLFPRERVAWAQSILSATLALGPALGLLIGAYIVQDLGWQYAFHTAFILSIILMFISIRFIQEIPSKTKERIDYLGAVFLMLAVISLLVYLTEGPSIGWFSATQFSLILTSIISFGVFIFVERRVAEPLMKLDLFRIRNIMVANISGLIAGTAMFLMFIGLTYYAQLPKPYGLGLSIIDSGLLMAPVALTMMVVGPIVGRLINSTGPKPLLIFGSIVGIIGFLLLNAFNSTNIQVLLDTVVASVGIISLMIPLVNMVAVSLPEDQRGVGIGMNTLIRSIGSSVGPVISTVFMDTYTAWIGYLFNNQYLPIASVPSSEAFHYIYLVGICLMFINLLVALLTKNYVLKQKVKTTESVV | failed
MVKGDITTAFIAEEYPDGFQGAVLDEPTLRRVAAAAAAMNRVAEIRRTRISGTMNNHERHVGVDWVVALQGESYHVSIAADREGSTVSFSDGSSLRVTSDWTPGQPLEHHHHHH | failed
MVKGKVINLHPTSSRFFKIGIKHYERGEIELAIERLKRALELDSKNIEIKFNLAGLLAQIGDFESSNKLLTELTTDNPEFYDSLFGLGCNFFEMGKLREAKHFLRRYLKLSNNTEFKEAAEDLLDFIETQQEFEREQKEMEKLTKLLERGNFLLENGRYEDAVKYFKMILAKDDTIFAARNNLSLAYFYMGEIEKAIHEAKKVLEIDKYNVYANCNLAFFYSTIGKTKELKKQLKTILELKTYDHKDKIKVLDTLIKLNQHAAIVDRAGELFEITKEPYFRHIQAISLYNTKQYIKAKKIWKDLKKNYNMPEIKIDYFLKKIDDVMKTFKKDTIDYFETGFGNLSKLEEKEFRSQLQKHIDMYFSQTFEENAKRIMDIIAENVKLNNEDKDAISQLLNALPLEKQRLNFTAIAAIVYYVYKKYLLRQKVKQKDVAERFGISQAVFSKWFKEFKGLLLGEDV | failed
MVKGLVVAGALLMASGCQMLQSMMPAGDEEMPRVREGTLAALPATETRQVQGIEAGSGPTDDVSIETVMESYKALLPLVDDPRKQVTIRHRLADLEFQRAERKMADTAVDELAGAIEAYQRLLSEYPEREGNDKIYYQLARAWELRGATPQQLDTLDTLVRRYPDSDYWIEAQFRRGDLLFIDGRYREAEQAFDEVTLASQERMADASFLVNAHYMKGWSLFKQAQYQEALFSYVEVLDLVMPEGQPVEDVDQRSQTLIEDLFRVVGLSLSYLDGAETLQALFRQTGGRPYEILVYDRYSELLVEREQYGDAIDVFEAYIEDHPASPWAPRYHIRIIDTLELAGFTRTVPERKADFVSLYGIYSDYWQSAGPDAMGFIEQQLEQLLPELADRQYLLAGESSDQQQADDHYRKAASYYAEFAATFPDHPRTPERLFLLGETYLELEDWAEAIAAFERVAYDYPQDTVSGRAAEAGYASVLAFREYSITWNSLPISEQAAYQELQQLNRLRFANAFPEDPRAPAVYYIALQHEFDRNNWEETVNMAARLVTWQPTPSAELTTEALLLSGHSLSELARYSEAEQAYRDALATMAEDDERRSGVRENLAAAVYRQAEQLADAGNVEAAVGEFLRVGTVVPESALRANAEYDAASLLITANLWEQAIGVLTSFRQAFPDHELIDTVPAKLALAYRETAQWERAADELQQMVALATTPEERRENLLIAAELYDQAGNRDKAIDTWRNYANSHPEPADVYMEAANRLAELYQEADDTVKRDYWLRKQMETVDRNPDAADDRMRYLAASASATLAREALARYDSIRLTLPLNESMTAKTDALERAVNAYKKTASYGLSSFATEAGYQIAHIYGRLGADLMDSERPTGLSELELAQYELLLEEQAYPFEDNAIDIHEQNIRRAREGIFDEWVKRSYEALKVLLPGRYRKEEVTSGVVYELD | failed
MVKKSYVINWARDLANRGVGVNYDGAFGSQCVDLPFWILGKFFGRPISGNAIDLLNSAKAAGYQVIYDAPGVNPRVGDIFVMHSIAYDGKDYGHTGLVIEDSDGHSIKTIEQNVDGNADNLYVGGPARYRTRSFNGIIGWIRPPYENEILENKREETDMRDFFVITNSEYTFAGVHYAKGAVLHVSPTQKRAFWVIADQENFIKQVNKNIEYVEKNASPAFLQRIVEIYQVKFEGKNVH | not failed
